Article PMC4403811, “Efficient Cargo Delivery into Adult Brain Tissue Using Short Cell-Penetrating Peptides” (PLoS ONE, 2015)
Where no end group is shown, it is not given here.

What was measured:
[1] = tested on: adult zebrafish brain (telencephalic hemisphere); test: Peptide translocation area in the telencephalon after CVMI (fluorescein IHC); conditions: 5(6)-carboxyfluorescein-labelled peptide, fluorescein IHC at 1 dpi, n = 3, mean ± s.e.m.
Experimental: (§1) Cerebroventricular microinjections (CVMI) were executed as described in [7, 8]. Fish were anesthetized using MESAB (0.01%) and an incision placed above the optic tectum with a fine needle (Becton Dickinson Biosciences). Through this hole a glass capillary is inserted and the liquid disperses evenly throughout the cerebroventricular fluid upon high pressure injection.
(§2) Fish were sacrificed 1 day post injection and heads fixed over night at 4°C in 2% PFA. Thereafter heads were transferred to 20% Sucrose-EDTA in […] phosphate buffer, pH 7.5. For cryosectioning embedding in Sucrose(20%)-Gelatine (7.5%) on dry ice was done and heads stored at -80°C. 12 μm cryosections were cut using a cryostat microtome and stored at -20°C.
(§3) Stainings were performed as previously described in [36, 43]. Yet after the first washing step a 6 min citrate buffer treatment at 85°C was done. Primary antibodies were sheep anti-fluorescein AP (1:4000, Roche), mouse anti-PCNA (1:500, Dako Cyto) and rabbit anti L-Plastin (Lcp1, 1:7500, a kind gift from Michael Redd, University of Utah, Salt Lake City, UT, USA), they were diluted in PBS. They were incubated at 4°C overnight and secondary antibodies for 30 min at room temperature. Secondary antibodies were Alexa anti-rabbit and anti-mouse 488, 555 (1:500, Molecular probes). FastRed stainings were carried out using Fast Red TR/Naphtol AS-MX tablets (Sigma), according to manufacturer's instructions. Lastly sections were washed using PBSTx and mounted. All immunohistochemical stainings were done on at least five individuals.
(§4) Images were acquired using an inverted Zeiss AxioImager Z1. Only sections between the caudal end of the olfactory bulb and anterior commissure were counted. The quantification of the average translocation range was done using the AxioVision free hand surface area measurement tool. The area showing anti-fluorescein staining in the left hemisphere was measured against the total this telencephalic hemisphere, based on color thresholds against control images. The statistical evaluation was performed using GraphPad Prism (Version 6.02) for one-way ANOVA followed by a Tukey’s post-hoc test and for Student’s T-Test. Error bars shown are the s.e.m. and asterisks indicate significance according to: *: p0.05, **: p0.01, ***: p0.001. p>0.05 is considered not significant.

[2] = tested on: adult zebrafish brain (telencephalic hemispheres); test: Relative fluorescence levels in the telencephalic hemispheres after CVMI (surface plots); conditions: CVMI 100 μM; for relative fluorescence levels in the telencephalic hemispheres (level of peptide translocated to deep tissues): Fast-Red staining of cryosections, compared to control PolyD
Experimental: as §1, §2, §3
(§5) Images were acquired using an inverted Zeiss AxioImager Z1. Only sections between the caudal end of the olfactory bulb and anterior commissure were counted. The quantification of the average translocation range was done using the AxioVision free hand surface area measurement tool. The area showing anti-fluorescein staining in the left hemisphere was measured against the total this telencephalic hemisphere, based on color thresholds against control images. […]

[3] = tested on: adult zebrafish brain (telencephalon); conditions: for number of TUNEL-positive (apoptotic) cells: CVMI 200 μM, 1 dpi, per telencephalic hemisphere per section, n = 3
Experimental: as §1, §2
TUNEL stainings of sections were carried out using the ApoTag Red In Situ apoptosis Detection Kit (Chemicon International). Stainings were performed according to manufacturer’s instructions and positive and negative controls were included.
as §4

[4] = tested on: adult zebrafish brain (telencephalon); test: L-Plastin immunohistochemistry for immune response (leukocytes/microglia) after peptide CVMI; conditions: for number of L-Plastin-positive cells per hemisphere per section: dose not printed in the block (heading: high doses), PBS-injected control 35 ±6, n = 3, mean ± s.e.m.
Experimental: as §1, §2, §3, §4

[5] = tested on: adult zebrafish brain (ventricular progenitor cells); conditions: CVMI 200 μM, PCNA IHC, n = 3, mean ± s.e.m.
Experimental: as §1, §2
Stainings were performed as previously described in [36, 43]. Yet after the first washing step a 6 min citrate buffer treatment at 85°C was done. […]
as §5

[6] = injection concentration 100 μM, stained area vs total hemisphere
[7] = CVMI at 100 μM, 150 μM and 200 μM (all doses tested), n = 4

Substance | average area of peptide translocation in one telencephalic hemisphere [1, 6] | relative fluorescence levels in the telencephalic hemispheres (level of peptide translocated to deep tissues) [2] | number of TUNEL-positive (apoptotic) cells [3] | number of L-Plastin-positive cells per hemisphere per section ([4]; CVMI) | average area of peptide translocation in one telencephalic hemisphere ([1]; injection concentration 200 μM) | effectiveness of penetration relative to Trans (relative fluorescence) ([2]; PolyR versus Trans) | cell death response (TUNEL-positive cells) compared to PolyD control [3, 7] | maximum concentration usable without any cell death response ([3]; CVMI, doses tested 100, 150, 200 μM, TUNEL) | immune response (L-Plastin-positive cells) compared to PolyD control [4, 7] | maximum concentration usable without activating the immune system ([4]; CVMI, doses tested 100, 150, 200 μM, L-Plastin IHC) | ventricularly proliferating progenitor cells (PCNA+ cells per telencephalic hemisphere section) [5]
RPARPAR ({5(6)‑carboxyfluorescein}-RPARPAR) [CendRP] | did not show any penetration | – | – | – | – | – | – | – | – | – | –
DDDDDDDDD ({5(6)‑carboxyfluorescein}-DDDDDDDDD) [PolyD, Poly-Aspartic Acid] | did not show any penetration | no translocation | did not result in any increase in the number of apoptotic cells | do not alter the number of leukocytes/microglia | – | – | – | – | – | – | –
RRRRRRRRR [PolyR, Poly-Arginine] | 70 ± 4% | significantly elevated levels of penetration | unchanged levels of TUNEL-positive cells | do not alter the number of leukocytes/microglia | 70 ± 5% | 3 fold | did not elicit any cell death response | not toxic at such concentrations | did not elicit any immune response | not causing an immune reaction at tested concentrations | not altered
RKKRRQRRR [Tat] | 27 ±13% | – | – | – | 63 ± 11% | – | – | – | – | – | –
